{"source": "patent US20260146089A1", "about": "(published 2026)", "binders": {"B1": {"name": "11A10 (antibody, V domains shown)", "VH": "EVQLVESGRGLVQPGGSLRLSCAASGFTFSSYWMSWVRQAPGKGLEWVANIKEDGSEKYYVDSVKGRFTISRDNAKNSLYLQMNSLRAEDTAVYYCARERREGYFDYWGQGTLVTVSS", "VL": "not shown"}, "B2": {"name": "12C08 (antibody, V domains shown)", "VH": "EEQLVESGGGLVQPGGSLRFSCEVSGFTFRSYWMSWVRQAPGKGLEWVANIKEDGSEKYYVDSVKGRFTISRDNAKNSLYLQMNSLRAEDTAVYYCARERREGYFDQWGQGTLVTVSS", "VL": "DIQMTQSPSTLSAFVGDRVTITCRASQSIGSWLAWYQQKPGKAPDLLIYKASSLESGVPSRFSGSGSGTEFTLTISSLQPDDFATYYCQQYKSYSWTFGQGTKVEIK"}, "B3": {"name": "12C08 antibody (antibody, V domains shown)", "VH": "EEQLVESGGGLVQPGGSLRFSCEVSGFTFRSYWMSWVRQAPGKGLEWVANIKEDGSEKYYVDSVKGRFTISRDNAKNSLYLQMNSLRAEDTAVYYCARERREGYFDQWGQGTLVTVSS", "VL": "DIQMTQSPSTLSAFVGDRVTITCRASQSIGSWLAWYQQKPGKAPDLLIYKASSLESGVPSRFSGSGSGTEFTLTISSLQPDDFATYYCQQYKSYSWTFGQGTKVEIK"}, "B4": {"name": "13E03 antibody (antibody, V domains shown)", "VH": "EIQLVESGGGLVQPGGSLRLSCAASGFTFSSYWMSWVRQTPGKGLEWVANIKEDGSEKYHVDSVKGRYTISRDNAKNSLYLQMSSLRADDTAVYYCARERREGYFDYWGQGTVVTASS", "VL": "DIQMTQSPSTLSASVGDRVTITCRASQSIGRWLAWYQQKPGKAPDLLIYKASSLESGVPSRFSGGGSGTEFTLTISSLQPDDFATYYCQQYKSYSWTFGQGTKVEVK"}, "B5": {"name": "08G12 (antibody, V domains shown)", "VH": "EVQLVESGGGLVQSGGSLRLSCAASGFTFSRFWMTWVRQAPGKGLEWVANIKEDGSEKYYVDSVKGRFTISRDNTKNSLYLQMNSLRAEDTAVYYCARERREGYFDYWGQGTLVTVSS", "VL": "not shown"}, "B6": {"name": "13E03 (antibody, V domains shown)", "VH": "EIQLVESGGGLVQPGGSLRLSCAASGFTFSSYWMSWVRQTPGKGLEWVANIKEDGSEKYHVDSVKGRYTISRDNAKNSLYLQMSSLRADDTAVYYCARERREGYFDYWGQGTVVTASS", "VL": "DIQMTQSPSTLSASVGDRVTITCRASQSIGRWLAWYQQKPGKAPDLLIYKASSLESGVPSRFSGGGSGTEFTLTISSLQPDDFATYYCQQYKSYSWTFGQGTKVEVK"}, "B7": {"name": "11B11 (antibody, V domains shown)", "VH": "EVQLVESGGGLVQPGGSLRLSCAASGFTFSSYWMTWVRQAPGKGLEWVANIKEDGSEKYYVDSVKGRFTISRDNAKNSLYVQMNSLRAEDTAIYYCARERREGYFDYWGQGTLVTVSS", "VL": "DIQMTQSPSILSASVGDRATITCRASQRISTWLAWFQQKPGKAPKLLIYKASSLESGVPSRFSGSGSGTEFTLTISSLQPDDFATYYCQQYKSYSWTFGQGTKVEIK"}, "B8": {"name": "06G07 A04 (antibody, V domains shown)", "VH": "EVQLVESGGGLVQPGGSLRLSCAASGFTFSSFWMSWVRQAPGKGLEWVANIKEDGSEKYYVDSVKGRFTISRDNAKNSLFLQMNSLRAEDTAVYYCARERRTGYFDYWGQGTLVTVSS", "VL": "DIQMTQSSSTLSASVGDRVTITCRASQSIGSWLAWFQQKPGKAPKLLIYKASSLESGVPSRFSGSGSGTEFTLTISSLQPDDFAIYYCQQYKSYSWTFGQGTKVEIK"}, "B9": {"name": "07B09 (antibody, V domains shown)", "VH": "EVQLVESGGGLVQPGGSLRLSCAASGFTFSSYWMTWVRQAPGKGLEWVANMRKDGSEKYYVDSVKGRFTISRDNAKNSLYLHMNSLRAEDTAVYYCARERSTGYFDYWGQGTLVIVSS", "VL": "DIQMTQSPSTLSASVGDRVTITCRASQRISTWLAWYQQKAGKAPKLLIYKASSLESGVPSRFSGSGSGTEFTLTIRSLEPDDFATYYCQQYISYTWTFGQGTKVEIK"}, "B10": {"name": "01B08 B01 (antibody, V domains shown)", "VH": "QVQLVQSGAEVKKPGASVKVSCKAAGYTFTGYYMHWVRQAPGQGLEWMGWINPYRSGTNFAQKFQDRVTMTRDTSISTAYMELSSLSSDDTAIYYCARGAGTTFYNAFDIWGQGTMVTVSS", "VL": "DIQMTQSPSAMSASVGDRVTITCRASQGINNYLAWFQQKPGKVPKRLIYAASSLQSGVPSRFSGSGSGTEFTLTISSLQPEDFATYYCLQHNRYPFTFGPGTKVDIK"}, "B11": {"name": "08B12 (antibody, V domains shown)", "VH": "EVQVVESGGGLVKPGGSLRLSCVASGFTFKKYNMNWVRQAPGKGLEWVSSISSSSTYIYYADSVKGRFTISRDNAKNSLNLQMNSLRAEDTAVYYCAGGGYFDYWGQGTLVTVSS"}, "B12": {"name": "13D02 (antibody, V domains shown)", "VH": "EVQLVESGGGLVKPGGSLRLSCAASGFTFSRFNMNWVRQTPGKGLEWVSSISSRSSYIYYADSVKGRFTISRDNAKKSLYLQMNSLRAEDTAVYYCAGGGYFDYWGQGTLVTVSS", "VL": "not shown"}, "B13": {"name": "OKT3 (antibody, V domains shown)", "VH": "QVQLVQSGGGVVQPGRSLRLSCKASGYTFTRYTMHWVRQAPGKGLEWIGYINPSRGYTNYNQKFKDRFTISRDNSKNTAFLQMDSLRPEDTGVYFCARYYDDHYCLDYWGQGTPVTVSS", "VL": "DIQMTQSPSSLSASVGDRVTITCSASSSVSYMNWYQQTPGKAPKRWIYDTSKLASGVPSRFSGSGSGTDYTFTISSLQPEDIATYYCQQWSSNPFTFGQGTKLQITR"}, "B14": {"name": "01F05 C01 (antibody, V domains shown)", "VH": "QVQLVQSGAEVKKPGASVKVSCKASGYTFTAYYIHWVRQAPGQGLEWMGWINPNSGGTNYAQMFQGRVTMTRDTSISAAYMELSRLSSDDTAVYYCTRGTPRYNWKSYNYGMDVWGQGTTVTVSS", "VL": "not shown"}}, "key": {"[1]": {"biological_target": "T1, human CD3ε on the cell surface (Jurkat cells, Th1 cells) (UniProt P07766 23-207)", "assay": "FACS Jurkat"}, "[2]": {"biological_target": "T1, human CD3ε on the cell surface (Jurkat …)", "assay": "FACS Jurkat", "remark": "listed apart in the source"}, "[3]": {"biological_target": "CD3ε/δ heterodimer", "assay": "sensorgram"}, "[4]": {"biological_target": "T2, Jurkat (UniProt P07766 23-207)", "assay": "FACS Jurkat"}, "[5]": {"biological_target": "T2, Jurkat", "assay": "FACS Jurkat", "remark": "listed apart in the source"}}, "note": "Read-outs that look alike come from different tables or passages of the source."}
{"binder": "B1", "values": [{"measurement": "EC50", "setting": "[1]", "value": 0.036, "unit": "µM"}, {"measurement": "EC50", "setting": "[2]", "value": 0.036, "unit": "µM"}]}
{"binder": "B2", "values": [{"measurement": "koff", "setting": "[3]", "value": 0.000334, "unit": "s⁻¹"}]}
{"binder": "B3", "values": [{"measurement": "EC50", "setting": "[1]", "value": 0.034, "unit": "µM"}, {"measurement": "EC50", "setting": "[2]", "value": 0.034, "unit": "µM"}]}
{"binder": "B4", "values": [{"measurement": "EC50", "setting": "[1]", "value": 0.035, "unit": "µM"}, {"measurement": "EC50", "setting": "[2]", "value": 0.035, "unit": "µM"}]}
{"binder": "B5", "values": [{"measurement": "EC50", "setting": "[1]", "value": 0.02, "unit": "µM"}, {"measurement": "EC50", "setting": "[2]", "value": 0.02, "unit": "µM"}]}
{"binder": "B6", "values": [{"measurement": "koff", "setting": "[3]", "value": 0.00198, "unit": "s⁻¹"}]}
{"binder": "B7", "values": [{"measurement": "EC50", "setting": "[1]", "value": 0.048, "unit": "µM"}, {"measurement": "EC50", "setting": "[2]", "value": 0.048, "unit": "µM"}]}
{"binder": "B8", "values": [{"measurement": "EC50", "setting": "[1]", "value": 0.027, "unit": "µM"}, {"measurement": "EC50", "setting": "[2]", "value": 0.027, "unit": "µM"}]}
{"binder": "B9", "values": [{"measurement": "EC50", "setting": "[1]", "value": 0.025, "unit": "µM"}, {"measurement": "EC50", "setting": "[2]", "value": 0.025, "unit": "µM"}]}
{"binder": "B10", "values": [{"measurement": "EC50", "setting": "[1]", "value": 0.023, "unit": "µM"}, {"measurement": "EC50", "setting": "[2]", "value": 0.023, "unit": "µM"}]}
{"binder": "B11", "values": [{"measurement": "EC50", "setting": "[1]", "value": 0.00068, "unit": "µM"}, {"measurement": "EC50", "setting": "[2]", "value": 0.00068, "unit": "µM"}]}
{"binder": "B12", "values": [{"measurement": "EC50", "setting": "[1]", "value": 0.00059, "unit": "µM"}, {"measurement": "EC50", "setting": "[2]", "value": 0.00059, "unit": "µM"}]}
{"binder": "B13", "values": [{"measurement": "EC50", "setting": "[4]", "value": 0.00055, "unit": "µM"}, {"measurement": "EC50", "setting": "[5]", "value": 0.00055, "unit": "µM"}]}
{"binder": "B14", "values": [{"measurement": "EC50", "setting": "[1]", "value": 0.0013, "unit": "µM"}, {"measurement": "EC50", "setting": "[2]", "value": 0.0013, "unit": "µM"}]}
